Source: US20150037339A1 (Regeneron, published 2015)

What was measured:
[1] = molecular target: T1, Activin A (homodimer of two inhibin βA subunits; R&D Systems, #338-AC) (human, UniProt P08476 311-426); experiment: SPR blocking: 5 nM Activin A + 7.5 nM binder over Follistatin-288 surface
T1 construct: Bought protein; also called inhibin-βA dimer
T1 sequence: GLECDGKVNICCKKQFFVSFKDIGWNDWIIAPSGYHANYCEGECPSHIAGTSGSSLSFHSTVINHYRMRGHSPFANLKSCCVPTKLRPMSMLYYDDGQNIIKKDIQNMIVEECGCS
Procedure: (§1) The binding signal (RU) was measured at 150 seconds after the start of the injection, and this signal was subtracted by the measured RU value for a negative control reference surface to determine the specific binding signal.

[2] = molecular target: T1, Activin A (homodimer of two inhibin βA …); experiment: SPR blocking: 5 nM Activin A + 1.88 nM binder over hActRIIB-hFc (Control 4) surface
Procedure: as §1

[3] = molecular target: T1, Activin A (homodimer of two inhibin βA …); experiment: SPR blocking: 5 nM Activin A + 0.94 nM binder over Follistatin-288 surface
Procedure: as §1

[4] = molecular target: T1, Activin A (homodimer of two inhibin βA …); experiment: SPR blocking: 5 nM Activin A + 0.00 nM binder over hActRIIA-hFc surface
Procedure: as §1

[5] = molecular target: T1, Activin A (homodimer of two inhibin βA …); experiment: SPR blocking: 5 nM Activin A + 15 nM binder over hActRIIB-hFc (Control 4) surface
[6] = molecular target: T1, Activin A (homodimer of two inhibin βA …); experiment: SPR blocking: 5 nM Activin A + 30 nM binder over hActRIIA-hFc surface
Procedure: as §1

[7] = molecular target: T1, Activin A (homodimer of two inhibin βA …); experiment: SPR blocking: 5 nM Activin A + 60 nM binder over hActRIIA-hFc surface
Procedure: as §1

[8] = molecular target: T1, Activin A (homodimer of two inhibin βA …); experiment: SPR blocking: 5 nM Activin A + 0 nM binder over Follistatin-288 surface
Procedure: as §1

[9] = molecular target: T1, Activin A (homodimer of two inhibin βA …); experiment: SPR blocking: 5 nM Activin A + 0.94 nM binder over hActRIIB-hFc (Control 4) surface
[10] = molecular target: T1, Activin A (homodimer of two inhibin βA …); experiment: SPR blocking: 5 nM Activin A + 7.50 nM binder over hActRIIA-hFc surface
Procedure: as §1

[11] = molecular target: T1, Activin A (homodimer of two inhibin βA …); experiment: SPR blocking: 5 nM Activin A + 3.75 nM binder over hActRIIB-hFc (Control 4) surface
Procedure: as §1

[12] = molecular target: T1, Activin A (homodimer of two inhibin βA …); experiment: SPR blocking: 5 nM Activin A + 15 nM binder over hActRIIA-hFc surface
Procedure: as §1

[13] = molecular target: T1, Activin A (homodimer of two inhibin βA …); experiment: SPR blocking: 5 nM Activin A + 1.88 nM binder over Follistatin-288 surface
Procedure: as §1

[14] = molecular target: T1, Activin A (homodimer of two inhibin βA …); experiment: SPR blocking: 5 nM Activin A + 30 nM binder over Follistatin-288 surface
Procedure: as §1

[15] = molecular target: T1, Activin A (homodimer of two inhibin βA …); experiment: SPR blocking: 5 nM Activin A + 0.00 nM binder over hActRIIB-hFc (Control 4) surface
Procedure: as §1

[16] = molecular target: T1, Activin A (homodimer of two inhibin βA …); experiment: SPR blocking: 5 nM Activin A + 30 nM binder over hActRIIB-hFc (Control 4) surface
Procedure: as §1

[17] = molecular target: T1, Activin A (homodimer of two inhibin βA …); experiment: SPR blocking: 5 nM Activin A + 3.75 nM binder over hActRIIA-hFc surface
Procedure: as §1

[18] = molecular target: T1, Activin A (homodimer of two inhibin βA …); experiment: SPR blocking: 5 nM Activin A + 1.88 nM binder over hActRIIA-hFc surface
Procedure: as §1

[19] = molecular target: T1, Activin A (homodimer of two inhibin βA …); experiment: SPR blocking: 5 nM Activin A + 7.50 nM binder over hActRIIB-hFc (Control 4) surface
[20] = molecular target: T1, Activin A (homodimer of two inhibin βA …); experiment: SPR blocking: 5 nM Activin A + 0.94 nM binder over hActRIIA-hFc surface
Procedure: as §1

[21] = molecular target: T1, Activin A (homodimer of two inhibin βA …); experiment: SPR blocking: 5 nM Activin A + 3.75 nM binder over Follistatin-288 surface
Procedure: as §1

[22] = molecular target: T1, Activin A (homodimer of two inhibin βA …); experiment: SPR blocking: 5 nM Activin A + 15 nM binder over Follistatin-288 surface
Procedure: as §1

[23] = molecular target: T1, Activin A (homodimer of two inhibin βA …); experiment: SPR blocking: 5 nM Activin A + 60 nM binder over hActRIIB-hFc (Control 4) surface
Procedure: as §1

[24] = molecular target: T1, Activin A (homodimer of two inhibin βA …); experiment: SPR blocking: 5 nM Activin A + 60 nM binder over Follistatin-288 surface
Procedure: as §1

B1: H4H10442P2 (antibody, human IgG4, V domains shown)
VH: QVQLQESGPGLVKPSETLSITCTVSGGSFSSHFWTWIRQPPGKGLEWIGYLHYSGGTSYNPSLKSRVIISVDTSKNQFSLKLNSVTAADTAVYYCARARSGITFGGLIVPGSFDIWGQGTMVTVSS
VL: not shown
notes: H4H prefix means human IgG4 Fc
- % bound RU w/no inhibitor [1]: 3%
- % bound RU w/no inhibitor [2]: 106%
- % bound RU w/no inhibitor [3]: 73%
- % bound RU w/no inhibitor [4]: 100%
- % bound RU w/no inhibitor [5]: 115%
- % bound RU w/no inhibitor [6]: 117%
- % bound RU w/no inhibitor [7]: 118%
- % bound RU w/no inhibitor [8]: 100%
- % bound RU w/no inhibitor [9]: 110%
- % bound RU w/no inhibitor [10]: 105%
- % bound RU w/no inhibitor [11]: 88%
- % bound RU w/no inhibitor [12]: 113%
- % bound RU w/no inhibitor [13]: 46%
- % bound RU w/no inhibitor [14]: 3%
- % bound RU w/no inhibitor [15]: 100%
- % bound RU w/no inhibitor [16]: 122%
- % bound RU w/no inhibitor [17]: 95%
- % bound RU w/no inhibitor [18]: 114%
- % bound RU w/no inhibitor [19]: 103%
- % bound RU w/no inhibitor [20]: 114%
- % bound RU w/no inhibitor [21]: 6%
- % bound RU w/no inhibitor [22]: 3%
- % bound RU w/no inhibitor [23]: 124%
- % bound RU w/no inhibitor [24]: 3%

B2: H4H10446P2 (antibody, human IgG4, V domains shown)
VH: QVQLQESGPGLVKPSETLSLTCTVSGGSFSSHFWSWIRQPPGKGLEWIGYILYTGGTSFNPSLKSRVSMSVGTSKNQFSLKLSSVTAADTAVYYCARARSGITFTGIIVPGSFDIWGQGTMVTVSS
VL: not shown
notes: as for B1
- % bound RU w/no inhibitor [1]: 3%
- % bound RU w/no inhibitor [2]: 105%
- % bound RU w/no inhibitor [3]: 77%
- % bound RU w/no inhibitor [4]: 100%
- % bound RU w/no inhibitor [5]: 115%
- % bound RU w/no inhibitor [6]: 98%
- % bound RU w/no inhibitor [7]: 118%
- % bound RU w/no inhibitor [8]: 100%
- % bound RU w/no inhibitor [9]: 107%
- % bound RU w/no inhibitor [10]: 94%
- % bound RU w/no inhibitor [11]: 76%
- % bound RU w/no inhibitor [12]: 108%
- % bound RU w/no inhibitor [13]: 54%
- % bound RU w/no inhibitor [14]: 3%
- % bound RU w/no inhibitor [15]: 100%
- % bound RU w/no inhibitor [16]: 89%
- % bound RU w/no inhibitor [17]: 85%
- % bound RU w/no inhibitor [18]: 115%
- % bound RU w/no inhibitor [19]: 95%
- % bound RU w/no inhibitor [20]: 111%
- % bound RU w/no inhibitor [21]: 7%
- % bound RU w/no inhibitor [22]: 3%
- % bound RU w/no inhibitor [23]: 129%
- % bound RU w/no inhibitor [24]: 3%

B3: H4H10440P2 (antibody, human IgG4, V domains shown)
VH: EVQLVESGGGVVQPGGSLRLSCAASTFTFDDFAMHWVRQAPGKGLEWVSLITGDGGSTYYADPVKGRFTISRDNSKNSLYLQMNSLRTEDTALYYCVKDWWIAARPDYYYYGMDVWGQGTTVTVSS
VL: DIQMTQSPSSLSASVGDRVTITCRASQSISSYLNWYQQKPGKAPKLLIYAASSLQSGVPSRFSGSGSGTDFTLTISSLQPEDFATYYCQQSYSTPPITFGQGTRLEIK
notes: as for B1
- % bound RU w/no inhibitor [1]: 4%
- % bound RU w/no inhibitor [2]: 58%
- % bound RU w/no inhibitor [3]: 76%
- % bound RU w/no inhibitor [4]: 100%
- % bound RU w/no inhibitor [5]: 4%
- % bound RU w/no inhibitor [6]: 3%
- % bound RU w/no inhibitor [7]: 3%
- % bound RU w/no inhibitor [8]: 100%
- % bound RU w/no inhibitor [9]: 79%
- % bound RU w/no inhibitor [10]: 6%
- % bound RU w/no inhibitor [11]: 19%
- % bound RU w/no inhibitor [12]: 4%
- % bound RU w/no inhibitor [13]: 57%
- % bound RU w/no inhibitor [14]: 1%
- % bound RU w/no inhibitor [15]: 100%
- % bound RU w/no inhibitor [16]: 4%
- % bound RU w/no inhibitor [17]: 17%
- % bound RU w/no inhibitor [18]: 52%
- % bound RU w/no inhibitor [19]: 7%
- % bound RU w/no inhibitor [20]: 75%
- % bound RU w/no inhibitor [21]: 17%
- % bound RU w/no inhibitor [22]: 2%
- % bound RU w/no inhibitor [23]: 4%
- % bound RU w/no inhibitor [24]: 0%

B4: H4H10430P (antibody, human IgG4, V domains shown)
VH: EVQLVESGGGLVQPGRSLRLSCKASGFAFDDFAMHWVRQAPGKGLEWVSGIVWNSGDIGYADSVKGRFTISRDNAKNSLYLQLNSLRTEDTALYFCVKDMVRGLMGFNYYGMDVWGQGTTVTVSS
VL: EIVLTQSPATLSLSPGERATLSCRASQTISTYLVWYRQRPGQAPSLLIYDASNRATDIPARFSGSGSGTDFTLTISSLEPEDFAVYYCQQRSNWPITFGQGTRLEIK
notes: as for B1
- % bound RU w/no inhibitor [1]: 1%
- % bound RU w/no inhibitor [2]: 62%
- % bound RU w/no inhibitor [3]: 79%
- % bound RU w/no inhibitor [4]: 100%
- % bound RU w/no inhibitor [5]: 3%
- % bound RU w/no inhibitor [6]: 2%
- % bound RU w/no inhibitor [7]: 2%
- % bound RU w/no inhibitor [8]: 100%
- % bound RU w/no inhibitor [9]: 80%
- % bound RU w/no inhibitor [10]: 3%
- % bound RU w/no inhibitor [11]: 20%
- % bound RU w/no inhibitor [12]: 2%
- % bound RU w/no inhibitor [13]: 59%
- % bound RU w/no inhibitor [14]: 1%
- % bound RU w/no inhibitor [15]: 100%
- % bound RU w/no inhibitor [16]: 3%
- % bound RU w/no inhibitor [17]: 19%
- % bound RU w/no inhibitor [18]: 62%
- % bound RU w/no inhibitor [19]: 4%
- % bound RU w/no inhibitor [20]: 81%
- % bound RU w/no inhibitor [21]: 15%
- % bound RU w/no inhibitor [22]: 1%
- % bound RU w/no inhibitor [23]: 3%
- % bound RU w/no inhibitor [24]: 1%
